Test results from patent US7704703B2, “Arf and Hdm2 interaction domains and the methods of use thereof” (St. Jude Children's Research Hospital, Inc., priority 2002, dated 2010).
Where no end group is shown, it is not given here.

Experiments:
Hdm2 210-304 [1] = target: T1, Hdm2 210-304 (Homo sapiens, UniProt Q00987); experiment: Surface plasmon resonance: Arf library peptides binding to immobilized His-tagged Hdm2 210-304; details: 15 amino acid peptides; maximal SPR signal after binding for 10 minutes
T1 construct: poly-His (thrombin cleavable, pET28a) (cleaved yes); made in house; host or cells: E. coli BL21(DE3)
Method: Surface Plasmon Resonance. Binding studies were performed using a Biacore 3000 surface plasmon resonance (SPR) instrument (Biacore, Inc.). A Tetra-His™ Antibody (Qiagen, Inc.; Cat. #34670) was covalently attached to a carboxymethylated gold surface (C-1 chip; Biacore, Inc.). The carboxymethyl groups on the surface were activated with N-ethyl-N′-(3-dimethylaminopropyl) carbodiimide (EDC) and N-hydroxysuccinimide (NHS) and the antibody was attached at pH 7.4 in 20 mM sodium phosphate buffer, 150 mM NaCl (PBS). Reactive sites remaining on the surface were blocked by reaction with ethanolamine. […] Binding was measured by flowing the non-His-tagged analyte through the reference and ligand-containing flow cells in sequence. […] Changes in the SPR response due to solvent differences and the injection process were monitored by injection of HBS-N buffer alone. […]
Two libraries of peptides 15 amino acids in length were synthesized based on the sequence of exon 1β of mouse p19^Arf and the entire sequence of human p14^Arf. […] The ability of these peptides to bind Hdm2 fragments was determined using the surface plasmon resonance (SPR) technique with a Biacore 3000 instrument. […] Relative binding affinity was judged on the basis of the maximal SPR signal detected after binding for 10 minutes.

Hdm2 210-304 [2] = target: T1, Hdm2 210-304; experiment: CD-based binding assay, induction of β-strand secondary structure with Hdm2 210-304
Method: Circular Dichroism. Spectra were recorded at 25° C. using an Aviv Model 62A DS circular dichroism spectropolarimeter (Aviv Instruments, Inc.) equipped with a thermoelectric temperature control unit. All samples were prepared in 10 mM Tris-HCl, pH 7.0 at 0.02-0.2 mM as determined by amino acid analysis. Spectra were recorded using 1 mm quartz cuvettes and reported spectra are the average of 10 scans over the range […]. Melting experiments were recorded in 10 mm quartz cuvettes with active stirring. The signal at 216 nm (β strand minimum) was used to monitor structural changes and the signal was averaged over 15 sec. The sample temperature was increased in 1° C. steps. […]
Characterization of Arf Hdm2 assemblies. […] The binding of mArfN37 to Hdm2 210-304, as monitored in this way, is saturable. […]
To investigate the roles of individual Arf motifs (A1 and A2) and Arf-binding segments of Hdm2 (H1 and H2) in the interactions between Arf and Hdm2 the binding of peptides containing these small segments (A1, A2, H1, or H2) to larger protein fragments of the corresponding binding partner (mArfN37 or Hdm2 210-304) were monitored using the CD-based binding assay. […] Peptides from the Hdm2 library that were positive for mArfN37 binding on the basis of SPR (i.e. those within H1 and H2) were mixed with mArfN37 and binding was monitored in the same manner. […]

Hdm2 210-275 = target: T2, Hdm2 210-275 (Homo sapiens, UniProt Q00987); experiment: CD-based binding assay, induction of β-strand secondary structure with Hdm2 210-275
T2 construct: poly-His (thrombin cleavable, pET28a) (cleaved yes); made in house; host or cells: E. coli BL21(DE3)
Method: Circular Dichroism. Spectra were recorded at 25° C. using an Aviv Model 62A DS circular dichroism spectropolarimeter (Aviv Instruments, Inc.) equipped with a thermoelectric temperature control unit. All samples were prepared in 10 mM Tris-HCl, pH 7.0 at 0.02-0.2 mM as determined by amino acid analysis. Spectra were recorded using 1 mm quartz cuvettes and reported spectra are the average of 10 scans over the range […]. Melting experiments were recorded in 10 mm quartz cuvettes with active stirring. The signal at 216 nm (β strand minimum) was used to monitor structural changes and the signal was averaged over 15 sec. The sample temperature was increased in 1° C. steps.
β-strand secondary structure forms when Arf and Hdm2 interact. […] This structural transition is induced when mArfN37 is added to an Hdm2 fragment and when an Hdm2 fragment is added to mArfN37. […] In contrast, the uncomplexed species elute at times consistent with monodisperse, conformationally extended polypeptides. Second, NMR resonances for ^15N-mArfN37 or ^15N-Hdm2 210-304 (and ^15N-Hdm2 210-275) are broadened beyond detection when an unlabeled form of the appropriate binding partner is added to the solution. At mArfN37:Hdm2 210-304 (or mArfN37:Hdm2 210-275) molar ratios that produce maximal β-strand secondary structure based on ellipticity at 200 nm using CD, resonances cannot be observed for the isotope-labeled component of Arf/Hdm2 mixtures. Further, the NMR spectra are consistent with slow exchange between the free and bound states.
Characterization of Arf Hdm2 assemblies. As discussed above, the addition of mArfN37 to Hdm2 210-304 results in the formation of supramolecular assemblies comprised of β-strands. Stepwise addition of sub-stoichiometric amounts of mArfN37 to Hdm2 210-304 increased β-strand secondary structure content as judged by the change in ellipticity at 200 nm using CD. […] The binding of mArfN37 to Hdm2 210-304, as monitored in this way, is saturable. Similar results were obtained when mArfN37 was mixed with the shorter fragment of Hdm2, Hdm2 210-275. Further, saturable binding is also observed when the Hdm2 fragments were added to an excess of mArfN37. These findings indicate that there are a limited number of binding sites for mArfN37 within Hdm2 210-304 and that discreet structures (containing β-strands) form when mArfN37 and Hdm2 210-304 (or 210-275) are mixed. […] Similar behavior is observed when mArfN37 binds Hdm2 210-275.

T1 sequence (Q00987 210-304): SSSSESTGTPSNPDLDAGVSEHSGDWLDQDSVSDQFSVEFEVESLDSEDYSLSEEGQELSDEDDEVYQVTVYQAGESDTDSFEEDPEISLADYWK
T2 sequence (Q00987 210-275): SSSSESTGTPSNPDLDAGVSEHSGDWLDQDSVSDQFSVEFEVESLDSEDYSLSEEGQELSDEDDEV

binding of Arf library peptides to Hdm2 210-304 (SPR) (Hdm2 210-304 [1])	Substance	induction of β-strand secondary structure when mixed with Hdm2 210-304 (CD) (Hdm2 210-304 [2])	induction of β-strand secondary structure/assembly when mixed with Hdm2 210-275 (CD) (Hdm2 210-275)
binds Hdm2 210-304	human Arf peptide residues 86-100: human p14^Arf library 15-mer spanning residues 86-100, contains the NoLS RRPR (LRRPRHSHPTRARRC; UniProt Q8N726 86-100, looked up, fragment)	–	–
–	mArfN37: peptide containing the N-terminal 37 amino acids of mouse Arf (p19^Arf residues 1-37, SEQ ID NO:16) (MGRRFLVTVRIQRAGRPLQERVFLVKFVRSRRPRTAS; also: His tag; listed as Mus musculus)	transition from random conformations to β-strand secondary structure	transition from random conformations to β-strand secondary structure
bind Hdm2 210-304	mouse Arf peptide residues 31-45: mouse p19^Arf library 15-mer spanning residues 31-45, contains the RRPR nucleolar localization signal (RRPRTASCALAFVNM; UniProt Q64364 31-45, looked up, fragment)	–	–
